Laboratory results published in paper PMC7149228.

Molecular target: Polyubiquitinated model substrate (lac repressor degron-sfGFP) bearing long ubiquitin chains (E. coli | not stated) (UniProt P0CG48)
Experiment: MST

Kd: 100 µM
Substance: Ddi1 construct containing the HDD and RVP domains (D220N) (domain or fragment)
